For assay [1], the target named is T1, human DR3 (full length, on cells) (human, UniProt Q93038 25-417).
T1 sequence: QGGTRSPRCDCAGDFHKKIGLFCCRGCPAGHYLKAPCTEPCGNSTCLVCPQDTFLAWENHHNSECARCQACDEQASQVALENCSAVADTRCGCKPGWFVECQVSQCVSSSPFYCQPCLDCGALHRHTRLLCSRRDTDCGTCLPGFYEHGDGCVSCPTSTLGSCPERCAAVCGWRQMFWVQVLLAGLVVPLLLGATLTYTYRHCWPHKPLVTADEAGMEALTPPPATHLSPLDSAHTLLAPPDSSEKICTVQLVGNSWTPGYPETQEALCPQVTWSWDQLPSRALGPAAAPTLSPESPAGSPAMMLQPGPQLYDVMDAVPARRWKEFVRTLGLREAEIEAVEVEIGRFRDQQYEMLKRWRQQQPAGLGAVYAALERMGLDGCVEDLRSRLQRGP
As to the kind of experiment: cell-based or functional assay.

Assay [2] addresses T1, human DR3 (full length, on cells). As to the kind of experiment: cell-based or functional assay. The source holds these as a separate data set.
Assay [3] has the same target. As to the kind of experiment: cell-based or functional assay. This is another data set of the same source.
The target in assay [4] is T2, human DR3 with the death domain deleted (ΔM339-P417 of SEQ ID NO:1), expressed on CHOK1SV cells (human, UniProt Q93038 25-338).
T2 construct: also called truncated DR3; hDR3 expressing CHO cells
T2 sequence: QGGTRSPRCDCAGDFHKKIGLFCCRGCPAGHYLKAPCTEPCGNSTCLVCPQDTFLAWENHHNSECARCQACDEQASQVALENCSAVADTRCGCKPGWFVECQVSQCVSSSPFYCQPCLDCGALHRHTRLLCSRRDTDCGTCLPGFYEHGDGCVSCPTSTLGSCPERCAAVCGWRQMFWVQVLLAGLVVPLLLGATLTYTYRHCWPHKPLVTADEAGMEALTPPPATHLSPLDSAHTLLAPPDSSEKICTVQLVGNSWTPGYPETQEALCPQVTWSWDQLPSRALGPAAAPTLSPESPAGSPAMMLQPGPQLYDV
As to the kind of experiment: flow cytometry competition: Fab vs TL1A on hDR3-expressing CHO cells.

The target in assay [5] is T3, DR3 (CRD1)-Fc (human).
T3 construct: Amino acids 25-71 of DR3 fused to the Fc domain of human IgG4; purified to exclude oligomers (mainly dimeric)
As to the kind of experiment: SPR Biacore T200, DR3(CRD1)-Fc captured by anti-human IgG, Fab as analyte, 25 C, 1:1 model, mean of 3 surface densities. As for the experimental part: The experiments were performed on a Biacore T200 instrument (GE Healthcare) and analysed with the Biacore T200 Evaluation Software. Anti human IgG antibodies (human IgG capture kit from GE Healthcare) were immobilized on all flow cells of a CM5 sensor chip according to manufacturer's instructions. HBS-EP (GE Healthcare) with 0.1% human serum albumin was used as running buffer. DR3(CRD1)-Fc (SEQ ID NO:2) was captured on the chip at low surface densities between 14 and 45 RU. Fab fragments were diluted to concentrations between 90 and 0.037 nM and subsequently injected for 360 s. […] Binding curves were measured at 25° C. with a flow rate between 30 and 60 μL/min.
Regeneration was performed with 3 M […] for 2×20 s. The raw data were double referenced by subtraction of the signals from a reference flow cell without captured ligand and a buffer blank. Determination of the kinetic parameters was performed by fitting with a 1:1 binding model using the Biacore T200 Evaluation Software (GE Healthcare). Average values obtained from 3 different surface densities of DR3(CRD1)-Fc (SEQ ID NO:2) were calculated and are stated in table 14

Assay [6] has as its target T1, human DR3 (full length, on cells). As to the kind of experiment: cell-based or functional assay. This is another data set of the same source.
For assay [7] the target is unchanged. As to the kind of experiment: cell-based or functional assay. This is another data set of the same source.

Numbering of substitutions follows the chain as printed. In names and notes the source's numbering stands.

T3 sequence (chain, as listed by the source limits assumed): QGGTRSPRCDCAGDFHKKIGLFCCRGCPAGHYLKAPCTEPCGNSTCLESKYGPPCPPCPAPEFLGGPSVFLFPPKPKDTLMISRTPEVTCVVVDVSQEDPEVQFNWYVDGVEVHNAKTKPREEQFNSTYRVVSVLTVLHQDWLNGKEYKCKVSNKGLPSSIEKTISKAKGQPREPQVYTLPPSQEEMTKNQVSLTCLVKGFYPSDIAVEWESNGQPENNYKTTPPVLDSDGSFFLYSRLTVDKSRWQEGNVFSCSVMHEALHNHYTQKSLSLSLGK

B1: 0124 (chimeric Fab of 28F26, human IgG4 constant domain, hinge Cys->Ser) (Fab, V domains shown)
VH: EVKVVESGGGLVKPGGSLKLSCAASGFVFSSYDMSWVRQIPEKRLEWVAAISSGDYYTYYPDSVKGRFTISRDDARNTLYLQMSSLRSEDTALYYCARHRGGNYPQYAMDYWGQGTSVTVSS
VL: DILLTQSPASFAVSLGQRATISCRASKSVSTSGYNYIHWYQQKPGQPPKLLIYLTSNLESGVPARFSGSGSGTDFTLNIHPVEEEDAATYYCQHSRELPFTFGSGTKLEIKR
notes: murine variable domains, human IgG4 constant domain (IgG4-Ser)
The term IC50 denotes the concentration at which inhibition is half-maximal. The low end stands for greater potency in that assay, the high end for weaker potency in that assay. The Kd is the concentration at which binding is half-saturated. Broadly, the koff is the first-order rate constant of dissociation. Read a low koff as a long-lived complex. By kon is commonly meant a measure of how fast the partners come together. Take B1: the “IC50 at 40 ng/ml TL1A, I5 reporter cells” value in assay [1] was found to be 2.4 nM. In assay [2], the “IC50, TNFalpha inhibition, TL1A-activated CD4+ T cells, donor 1” value (from here on “IC50, TNFalpha inhibition … donor 1”) stood at 1.11 nM; the “IC50, TNFalpha inhibition, TL1A-activated CD4+ T cells, donor 2” value (“IC50, TNFalpha inhibition … donor 2” below) came out at 1.21 nM; the “IC50, TNFalpha inhibition, average (n 4)” value amounted to 1.33 nM; the “max % inhibition of TNFalpha, donor 1” value worked out at 52.3%. In addition, in assay [2], the “max % inhibition of TNFalpha, donor 2” value amounted to 41.3%. In assay [3], the “GM-CSF, fold downregulation, +TL1A + anti DR3 Fab” value came to 7.9 fold; the “IFNγ, fold downregulation, +TL1A + anti DR3 Fab” value worked out at 1.1 fold; the “IL-6, fold downregulation, +TL1A + anti DR3 Fab” value came to 13.3 fold; the “TNFα, fold downregulation, +TL1A + anti DR3 Fab” value stood at 5 fold. In assay [4], this molecule gave an IC50 of 1.3 nM and a max percentage inhibition of 79%. In assay [5], binding was characterised by a dissociation constant (Kd) of 0.267 nM, the koff was 0.000201 s⁻¹ and the kon came to 752000 M⁻¹ s⁻¹.

B2: 0122 (chimeric Fab of 27F16, human IgG4 constant domain, hinge Cys->Ser) (Fab, V domains shown)
VH: EVQLVESGGDFVKPGGSLKLSCAASGFTFNNYGMSWVRQTPDKRLEWVAAISSGVTYTYYPDTVKGRFTISRDNAKNTLYLHMSSLKSEDTAMYYCGRHDDYGNHFDYWGQGTTLTVSS
VL: DIVMTQSPSSLAMSLGQRVTMNCKSSQSLLNSHNQKNYLAWYQQKPGQSPKLLVYFASSRESGVPDRFIGSGSGTDFTLTISSVQAEDLADYFCQQHYSTPFTFGSGTKLEIKR
notes: murine variable domains, human IgG4 constant domain (IgG4-Ser), human kappa
On to B2, for which, in assay [2], the “max % inhibition of TNFalpha, donor 1” value amounted to 3.9% and the “max % inhibition of TNFalpha, donor 2” value was found to be 10%. For the same molecule, in assay [4], the IC50 was determined as 5.11 nM and the max percentage inhibition was determined as 33%.

B3: 0118 (chimeric Fab of 27F16, human IgG1 constant domain) (Fab, V domains shown)
VH: B2 VH
VL: B2 VL
With B3, in assay [6], the “IFN-γ, TL1A-costimulated lymphocytes, Fab 0.003 µg/mL” value was 132 ng/mL; the “IFN-γ, TL1A-costimulated lymphocytes, Fab 0.01 µg/mL” value came to 134 ng/mL; the “IFN-γ, TL1A-costimulated lymphocytes, Fab 0.03 µg/mL” value is 158 ng/mL; the “IFN-γ, TL1A-costimulated lymphocytes, Fab 0.1 µg/mL” value was 151 ng/mL. Further, in assay [6], the “IFN-γ, TL1A-costimulated lymphocytes, Fab 0.3 µg/mL” value is 124 ng/mL and the “IFN-γ, TL1A-costimulated lymphocytes, Fab 1.0 µg/mL” value stood at 132 ng/mL. Further, in assay [7], the “IFN-γ, TL1A-costimulated RA SF cells, Fab 0.003 µg/mL” value was found to be 2310 pg/mL; the “IFN-γ, TL1A-costimulated RA SF cells, Fab 0.01 µg/mL” value is 2280 pg/mL; the “IFN-γ, TL1A-costimulated RA SF cells, Fab 0.03 µg/mL” value was determined as 2080 pg/mL; the “IFN-γ, TL1A-costimulated RA SF cells, Fab 0.1 µg/mL” value amounted to 2100 pg/mL. In assay [7], the “IFN-γ, TL1A-costimulated RA SF cells, Fab 0.3 µg/mL” value was found to be 2120 pg/mL and the “IFN-γ, TL1A-costimulated RA SF cells, Fab 1 µg/mL” value is 2230 pg/mL.

B4: 0130 (recombinant murine Fab of 45F36) (Fab, V domains shown)
VH: EVQLVESGGGLVKPGGSLKLSCAASGFTFSSYAMSWVRQSPDKRLEWVAEISSGDTYTYYPDTVTGRFTISRDNAKKTLYLEMSGLRSEDTAMYYCARDREAYYGQQYVMDYWGQGTSVTVSS
VL: DIVLTQSPASLAVSLGLSVTISCRASESIEYSGTSFLQWYQQKPGQPPRLLIYGSSTVESGVPARFSGSGSGTDFSLNIHPVEEDDSAMYFCQQSRRLPWTFGGGTKLEIKR
notes: murine Fab; also called 00130
With B4, inhibition in assay [1] was half-maximal at 1.4 nM (IC50 at 40 ng/ml TL1A, I5 reporter cells). In assay [2], the “IC50, TNFalpha inhibition … donor 1” value was 0.539 nM; the “IC50, TNFalpha inhibition … donor 2” value was 1.77 nM; the “IC50, TNFalpha inhibition, average (n 5)” value was found to be 0.642 nM; the “max % inhibition of TNFalpha, donor 1” value was found to be 84.4%. The “max % inhibition of TNFalpha, donor 2” value in assay [2] amounted to 78%. In assay [4], this molecule showed an IC50 of 1.34 nM and a max percentage inhibition of 73%. In assay [5], this molecule registered an equilibrium dissociation constant (Kd) of 0.12 nM, a koff of 0.000208 s⁻¹ and a kon of 1.74e+06 M⁻¹ s⁻¹.

B5: 0169 (humanized IgG1 Fab of 0072; HC T28A S49A Y91; LC Q3A T5A S60A M4L) (Fab, V domains shown)
VH: EVQLVESGGGLVQPGGSLRLSCAASGFTFSNYDMSWVRQAAGKGLEWVSAFSSDGYTFYPGAVKGRFTISRENAKNSLYLQMNSLRAGDTAVYYCARHADYANYPVMDYWGQGTLVTVSS
VL: DIALAQSPSSLSASVGDRVTITCRASKSVSTSGYSYMHWYQQKPGKAPKLLIYLASNLEAGVPSRFSGSGSGTDFTLTISSLQPEDFATYYCQHSRELPLTFGGGTKVEIK
For the molecule B5, in assay [6], the “IFN-γ, TL1A-costimulated lymphocytes, Fab 0.003 µg/mL” value amounted to 121 ng/mL; the “IFN-γ, TL1A-costimulated lymphocytes, Fab 0.01 µg/mL” value is 138 ng/mL; the “IFN-γ, TL1A-costimulated lymphocytes, Fab 0.03 µg/mL” value was 81 ng/mL; the “IFN-γ, TL1A-costimulated lymphocytes, Fab 0.1 µg/mL” value amounted to 58 ng/mL. In addition, in assay [6], the “IFN-γ, TL1A-costimulated lymphocytes, Fab 0.3 µg/mL” value was found to be 31 ng/mL and the “IFN-γ, TL1A-costimulated lymphocytes, Fab 1.0 µg/mL” value was determined as 55 ng/mL.

B6: 0219 (humanized Fab of 27F44, IgG1, S49A HC) (Fab, V domains shown)
VH: B5 VH with A41T, S49A, A62S
VL: B5 VL with A3Q, L4M, A5T, A60S
notes: Human IgG1 constant part
In assay [5], B6 displayed a Kd of 0.00955 nM, a koff of 3.06e-05 s⁻¹ and a kon of 3.2e+06 M⁻¹ s⁻¹.

B7: 0143 (chimeric Fab of 44F434, human IgG4 constant domain, hinge Cys->Ser) (Fab, V domains shown)
VH: EVQLVESGGDLVMPGGSLKLSCAASGFIFSSYGLSWIRQTPDKRLEWVATISGGDSYTYYPDSVKGRFTISSDNAKNTLYLQMTSLKSEDTAMYYCATQREIYYGTYYALDHWGQGTSVTVSS
VL: DIQMTQTTSSLSASLGDRVTISCRASQDINNYLNWYQQKPDGTVKLLIYYTSRLQSGVPSRFSGSGSGTDYSLTISSLEQDDIATYFCQQGSPLPWTFGGGTKLEIKR
notes: IgG4-Ser, chimeric
Take B7: the “IC50 at 40 ng/ml TL1A, I5 reporter cells” value in assay [1] came to 0.29 nM. Also, in assay [2], the “IC50, TNFalpha inhibition … donor 1” value came out at 0.148 nM; the “IC50, TNFalpha inhibition … donor 2” value is 0.074 nM; the “IC50, TNFalpha inhibition, average (n 5)” value turned out to be 0.125 nM; the “max % inhibition of TNFalpha, donor 1” value stood at 76.7%. In addition, in assay [2], the “max % inhibition of TNFalpha, donor 2” value stood at 66%. For the same molecule, in assay [4], the IC50 amounted to 0.12 nM and the max percentage inhibition was 76%. In assay [5], this molecule showed a Kd of 0.00147 nM, a koff of 5.1e-06 s⁻¹ and a kon of 3.49e+06 M⁻¹ s⁻¹.

These data come from patent publication US20170305994A1 (Novo Nordisk, published 2017).
